From patent US20250145691A1 (University of Texas, published 2025)

Columns and labels:
NTD = target: T1, NTD (UniProt P0DTC2 14-303); test: ELISA and biolayer interferometry (BLI)
T1 construct: domain: NTD; also called N-terminal domain

RBD = RBD (SARS-CoV-2, UniProt P0DTC2 319-591); test: ELISA and biolayer interferometry (BLI)

B1: antibody SC45 (antibody, V domains shown)
VH: QVQLQESGPGLVKSSETLSLTCTVSGGSISSYYWSWIRQPPGKGLEWIGCIYSSGSTNYNPSLKSRVTISVDSSKNQFSLRLNSVTAADTAVYYCARHKGTDFWSGYSFTPRGGWFDPWGQGALVSVSS
VL: DIQMTQSPSSLSASVGDRVTITCRASQSISSYLNWYQQKPGKAPKLLIYGASNLQSGVPSRFSGSGSETDFTLTISSLQPEDFASYYCQQSHSIPVTFGQGTKLEIK
- binding result (NTD): no binding
- binding result (RBD): no binding
